Experimental data taken from paper PMC7943553 (2021).
Changes are numbered by the printed parent chain.

B1: PvRBP2b human mAb 253245 (antibody, V domains shown)
VH: EVQLVQSGAEVKKPGSSMKVSCKASGGTFNRYVFSWVRQAPGQGLEWMGGILPILETTYYAKNFKGRVTITADESTSTVYMELSSLTSEDTAVYFCARDEHDYVWGSYRPSLTGPWGQGTLVTVSS
VL: QSALTQPPSTSGSPGQSVTISCTGTGIDVGGFSYVSWFQYHPGKAPKLIIFEVTKRPSGVPDRFSGSKSGNTASLTISGLQADDEAEYYCSSYAVNNNFVFGTGTKVTVL
B2: PvRBP2b human mAb 251249 (antibody, V domains shown)
VH: EVQLVESGGGLVKPGGSLRLSCEASGFLFSSYSMNWVRQAPGKGLEWVSSITGYSSEVFYTDSVKGRFTVSRDNSKNSLYLQMDSLRAEDTAVYYCARALTIFGVVITDYWFFDLWGRGTLVTVSS
VL: EIVLTQSPATLSLSPGDRATLSCRASQSVTTFLAWYQQKPGQAPRLLIYDVSNRATGIPARFSGSGSGTDFTLTISSLEPEDFAVYYCQQRSNWGLTFGGGTKVEIK
B3: PvRBP2b human mAb 241242 (antibody, V domains shown)
VH: EVQLLESGGGLVQPGGSLRLSCAVSGFTFRNYALSWVRQAPGKGLDWVSTISASGGATYYADSVKGHFTISRDNSKNILYLDMKSLRAEDTAIYYCARDGGSYTPYFFLDSWGQGALVTVSS
VL: SYELTQPASVSVAPGQTAQITCGGNSIGRKSIHWYQHKPGQAPVLVISYDSDRPSGIPERFSGSNSGNTATLTISKVEAGDEADFYCQVRDSDNDHVVFGGGTKLTVL
B4: PvRBP2b human mAb 273264 (antibody, V domains shown)
VH: EVQLLESGGGLVRPGGSQRLSCAASGFTFTPYAMTWVRQAPGKGLEWLSTISGSGGSTSYADSVKGRFTISRDNSKNILYLQMDSLRAEDTALYYCTKDKDEYTFGHNAFDVWGRGTMVTVSS
VL: SYELTQAPSVSVAPGQTARITCGGDNIGRTSVHWYQQKPGQAPVLVIFYDNDRPSGIPERFSGSNSGNMATLSISRVEVGDEADYYCQVWDSNNDHPVFGGGTKLTVV
B5: PvRBP2b human mAb 258259 (antibody, V domains shown)
VH: B4 VH with S59Y, I78M, D84N, R87T, R115Q
VL: B4 VL with T30K, S31T, H33N, F48Y
B6: PvRBP2b human mAb 243244 (antibody, V domains shown)
VH: QVQLVESGGGVVQSGKSLRVSCAASGFTFSSYGMHWVRQAPGKGLEWVAFISYDGDNKYSADSVKGRLTISRDNSKNTLYLQMNSLRPEDTAVYYCAKESNYGENAFDIWGQGTMVTVSS
VL: QSALTQPRSVSGSPGQSVTISCTGTSSDVGFYNFVSWYQHHPGKAPKLIIYDVSERPSGVPDRFSGSKSGNTASLSISGLQPEDEADYYCCSYAGTYTFVFGSGTKVTVL
B7: PvRBP2b human mAb 237235 (antibody, V domains shown)
VH: QVQLVESGGGVVQPGRSLRLSCAASGFMFNSYGMHWVRQAPGKGLEWMAFISYDGSDDYYGDSVKGRITISRDNSKNTLFLHINSLRTEDTAVYYCAKESNYGENAFDVWGHGTMVTVSS
VL: B6 VL with S27N, I49M, S54T, S76T, P82A, D87E, S103H
B8: PvRBP2b human mAb 283284 (antibody, V domains shown)
VH: QVQLQQWGAGLLKPSETLALTCTVYGGSSSGYYWNWIRQSPGKGLEWIGEISDSGSTIYNPSLESRVTMSVDTSKNQFSLKLTSVTAADTAVYYCAKAILTRYNWLDPWSQGTLVTVSS
VL: DIVMTQSPSSLSASVGDRISISCRASQGVNSALAWYQQKPGKAPKLLIYDASTLESGVPSRFSGSGSGTDFALTINSLQPEDFATYYCQQFNSYPLTFGGGTKVEIK

Target: T1, P. vivax Reticulocyte Binding Protein 2b, residues 161–1454 (P. vivax strain Salvador I, UniProt A5K736 161-1454, DyLight 488 (NHS ester) in the FRET assay; biotin (BirA site) in the competition ELISA between human mAbs)
T1 chain: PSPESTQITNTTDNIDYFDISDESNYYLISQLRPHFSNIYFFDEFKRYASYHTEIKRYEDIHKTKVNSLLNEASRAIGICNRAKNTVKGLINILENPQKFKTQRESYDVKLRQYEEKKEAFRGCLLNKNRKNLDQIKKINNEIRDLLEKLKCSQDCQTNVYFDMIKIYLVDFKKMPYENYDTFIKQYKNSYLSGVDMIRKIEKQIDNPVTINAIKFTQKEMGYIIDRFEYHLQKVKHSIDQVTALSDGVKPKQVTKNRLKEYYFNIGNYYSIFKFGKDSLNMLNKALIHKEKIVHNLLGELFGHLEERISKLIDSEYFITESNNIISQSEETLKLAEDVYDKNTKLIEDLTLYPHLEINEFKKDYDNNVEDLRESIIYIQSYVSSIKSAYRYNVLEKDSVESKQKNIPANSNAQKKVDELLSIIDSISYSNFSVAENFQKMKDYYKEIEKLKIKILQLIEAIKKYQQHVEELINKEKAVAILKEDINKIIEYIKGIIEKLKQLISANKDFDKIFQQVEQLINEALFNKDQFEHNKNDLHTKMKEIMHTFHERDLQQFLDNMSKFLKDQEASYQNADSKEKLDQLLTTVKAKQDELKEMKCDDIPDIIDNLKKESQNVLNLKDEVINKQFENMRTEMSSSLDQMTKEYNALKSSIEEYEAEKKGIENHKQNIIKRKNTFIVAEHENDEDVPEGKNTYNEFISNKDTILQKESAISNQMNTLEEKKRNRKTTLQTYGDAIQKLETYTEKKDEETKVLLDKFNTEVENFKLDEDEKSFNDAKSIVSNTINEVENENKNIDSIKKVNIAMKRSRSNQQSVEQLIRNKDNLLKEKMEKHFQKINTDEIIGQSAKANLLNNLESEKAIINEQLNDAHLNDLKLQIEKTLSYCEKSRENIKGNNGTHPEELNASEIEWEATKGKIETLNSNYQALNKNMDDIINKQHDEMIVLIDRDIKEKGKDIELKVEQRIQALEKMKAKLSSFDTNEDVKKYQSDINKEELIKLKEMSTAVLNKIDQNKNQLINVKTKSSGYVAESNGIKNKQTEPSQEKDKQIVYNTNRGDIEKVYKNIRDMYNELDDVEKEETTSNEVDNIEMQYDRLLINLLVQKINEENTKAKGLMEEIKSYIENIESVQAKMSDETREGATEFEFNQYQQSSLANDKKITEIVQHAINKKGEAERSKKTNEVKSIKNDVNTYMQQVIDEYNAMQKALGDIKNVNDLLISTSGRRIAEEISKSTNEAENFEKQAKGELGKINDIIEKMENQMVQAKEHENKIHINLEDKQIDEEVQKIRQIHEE
Test: BLI

Row | Binder | koff
1 | B1 | 8.17e-06 s⁻¹
2 | B2 | < 1e-06 s⁻¹
3 | B3 | 2.13e-05 s⁻¹
4 | B4 | 3.02e-05 s⁻¹
5 | B5 | 7.57e-06 s⁻¹
6 | B6 | 1.15e-05 s⁻¹
7 | B7 | 3.45e-05 s⁻¹
8 | B8 | 6e-05 s⁻¹

Target: T1, P. vivax Reticulocyte Binding Protein …
Test: BLI; representative sensorgram

Row | Binder | Kd
9 | B1 | < 0.01 nM
10 | B2 | < 0.01 nM
11 | B3 | < 0.01 nM
12 | B4 | < 0.01 nM
13 | B5 | < 0.01 nM
14 | B6 | < 0.01 nM
15 | B7 | 0.1 nM
16 | B8 | 0.1 nM

Target: T1, P. vivax Reticulocyte Binding Protein …
Test: BLI
Remark: another data set of the same source

Row | Binder | Kd
17 | B1 | 0.0307 nM
18 | B2 | < 0.01 nM
19 | B3 | 0.061 nM
20 | B4 | 0.083 nM
21 | B5 | 0.0269 nM
22 | B6 | 0.0366 nM
23 | B7 | 0.0883 nM
24 | B8 | 0.246 nM
